B1: chimeric antibody 5E11-2 (antibody, V domains shown)
VH: EVKLEESGGGLVQPGGSMKLSCAASGFTFSDAWMDWVRQSPEKGLEWVAEIRSKPNNHATYYAESVKGRFTISRDDSKSSVYLQMNSLRAEDTGIYYCTRTTDYSMDYWGQGTSVTVSS
VL: DIQMTQSPASLAVSLGQRATISCRASQSVSASSYSYMHWYQQKPGQPPKLLIKYASNLQSGVPARFSGSGSGTDFTLNIHPVEEEDSATYYCQHSWEIPRTFGGGTKLEIK
B2: chimeric antibody 1A2-7 (antibody, V domains shown)
VH: QVQLQQPGAELVKPGASVKLSCKASGYTFTSYWMHWVKQRPGQGLEWIGEINPSNGRTNYNEKFKSKATLTVDKSSSTAYMQLNSLTSEDSAVYYCARDRYDEGNAMDYWGQGTSVTVSS
VL: DIVMTQTTSSLSASLGDRVTISCRASQDITNYLNWYQQKPDGTVKLLIYYTSRLHSGVPSRFSGSGSGTDYSLTISNLEQEDIATYFCQQGDTLPRTFGGGTKLEIK
B3: chimeric antibody 3G9-1 (antibody, V domains shown)
VH: QVQLQQPGAELVKPGASVKLSCKASGYTFTSYWMHWVKQRPGQGLEWIGEINPSNGRTNYNEKFKSKATLIVDKSSSTAYMQLSSLTSEDSAVYYCARGIYYGYDYAMDYWGQGTSVTVSS
VL: DIQMTHTTSSLSASLGDRVTISCRASQDISNYLNWYQQKPDGTVKLLIYYTSRLHSGVPSRFSGSGSGTDYSLTISNLEQEDIATYFCQQGNTLPPTFGGGTKLEIK
B4: chimeric antibody 3A2-18 (antibody, V domains shown)
VH: EVQLQQPGAELVKPGASVKLSCKASGYTFTSYWMHWVKQRPGQGLEWIGEINPSNGRTNYNEKFKSKATLTVDKSSSTAYVQLNSLTSEDSAVYYCARDRYDEGNAMDYWGQGTSVTVSS
VL: DIVMTQTTSSLSASLGDRVTISCRASQDITNYLNWYQQKPDGTVKLLIYYTSRLHSGVPSRFSGSGSGTDYSLTISNLEQEDIATYFCQQGDTLPRTFGGGTKLEIK

biological target: T1, Human LILRB4/CD85k/ILT3 Protein (ECD, His Tag), Sino Biological (human, UniProt Q8NHJ6 22-259); assay: ELISA, coated LILRB4 ECD-His
T1 construct: extracellular domain; Bought protein; it is not tied to this bought protein; also called LILRB4 protein; not shown: His tag

Binding result, binds:
B1
B2
B3
B4
